Residue numbers refer to the chain shown, from its start. Names may count otherwise. Read-outs that look alike come from different tables or passages of the source.
Experiments:
[1] = target: T1, PD-1 expressed on modified HEK-Blue IL-2 reporter cell clones (UniProt Q15116 25-288, limits assumed); assay: cell-based or functional assay
[2] = target: T2, IL-2 receptor overexpressed on HEK-Blue IL-2 reporter cells (InvivoGen) (UniProt P01589 22-272; P14784 27-551; P31785 23-369, limits assumed); assay: cell-based or functional assay
T2 sequence (looked up) 1: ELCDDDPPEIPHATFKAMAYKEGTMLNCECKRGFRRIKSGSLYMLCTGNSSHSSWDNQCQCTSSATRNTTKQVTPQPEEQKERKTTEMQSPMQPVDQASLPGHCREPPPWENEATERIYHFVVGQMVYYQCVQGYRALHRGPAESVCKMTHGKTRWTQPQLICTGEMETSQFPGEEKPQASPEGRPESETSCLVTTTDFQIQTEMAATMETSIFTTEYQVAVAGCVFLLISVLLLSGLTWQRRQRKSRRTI
T2 sequence (looked up) 2: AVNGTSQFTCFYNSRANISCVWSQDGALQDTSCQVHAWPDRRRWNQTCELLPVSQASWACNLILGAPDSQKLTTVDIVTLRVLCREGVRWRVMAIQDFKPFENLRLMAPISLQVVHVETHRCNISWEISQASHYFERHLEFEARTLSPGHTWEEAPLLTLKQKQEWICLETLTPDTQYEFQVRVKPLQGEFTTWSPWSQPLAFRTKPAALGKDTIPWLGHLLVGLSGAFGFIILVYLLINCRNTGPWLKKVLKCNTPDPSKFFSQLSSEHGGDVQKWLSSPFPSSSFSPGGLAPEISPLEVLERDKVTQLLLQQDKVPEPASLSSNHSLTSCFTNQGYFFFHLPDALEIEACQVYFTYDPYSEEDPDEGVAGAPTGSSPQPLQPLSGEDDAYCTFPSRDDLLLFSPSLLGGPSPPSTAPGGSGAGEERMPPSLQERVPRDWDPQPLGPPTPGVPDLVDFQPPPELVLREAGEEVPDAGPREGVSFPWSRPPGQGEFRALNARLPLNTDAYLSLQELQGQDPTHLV
T2 sequence (looked up) 3: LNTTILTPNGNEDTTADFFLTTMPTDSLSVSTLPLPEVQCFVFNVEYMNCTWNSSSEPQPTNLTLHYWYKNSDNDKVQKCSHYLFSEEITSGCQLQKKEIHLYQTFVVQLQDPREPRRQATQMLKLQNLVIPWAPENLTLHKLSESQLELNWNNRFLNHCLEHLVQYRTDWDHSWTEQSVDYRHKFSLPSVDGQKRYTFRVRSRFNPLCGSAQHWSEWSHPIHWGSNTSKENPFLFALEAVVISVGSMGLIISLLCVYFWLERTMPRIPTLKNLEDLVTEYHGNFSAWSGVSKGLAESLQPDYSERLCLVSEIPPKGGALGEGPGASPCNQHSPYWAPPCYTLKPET

[3] = target: IL-2 receptor together with PD-1 on HEK-Blue IL-2 reporter cells expressing PD-1 (UniProt P01589); assay: cell-based or functional assay
IL-2 receptor together with PD-1 on HEK-Blue IL-2 reporter cells expressing PD-1, sequence (Q15116 25-288 limits assumed): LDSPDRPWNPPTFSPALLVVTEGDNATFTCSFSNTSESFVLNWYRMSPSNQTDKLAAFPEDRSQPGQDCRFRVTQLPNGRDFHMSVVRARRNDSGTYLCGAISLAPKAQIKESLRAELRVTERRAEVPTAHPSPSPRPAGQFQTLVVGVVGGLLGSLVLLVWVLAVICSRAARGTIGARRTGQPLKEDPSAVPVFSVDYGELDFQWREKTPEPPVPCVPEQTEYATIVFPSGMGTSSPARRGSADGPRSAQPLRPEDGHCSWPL

[4] = target: trimeric IL-2 receptor on HEK-Blue IL-2 reporter cells (UniProt P01589); assay: cell-based or functional assay
Histidine-tagged CD25 = target: T3, Histidine-tagged CD25 (UniProt P01589 22-217, limits assumed); assay: Biolayer Interferometry (ForteBio), immobilized His-tagged CD25
T3 construct: Immobilized in Biolayer Interferometry (ForteBio); not shown: histidine tag
T3 sequence (looked up): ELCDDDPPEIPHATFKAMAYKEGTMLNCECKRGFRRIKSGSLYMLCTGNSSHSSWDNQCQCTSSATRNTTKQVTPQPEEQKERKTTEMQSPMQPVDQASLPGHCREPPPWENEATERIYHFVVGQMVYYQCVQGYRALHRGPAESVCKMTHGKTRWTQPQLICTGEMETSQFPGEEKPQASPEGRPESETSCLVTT
Procedure: Polypeptides comprising a modified IL-2 fused to the C-terminus of a PD-1 binding VHH and control polypeptides were tested for binding to CD25 using Biolayer Interferometry (ForteBio).

[5] = target: trimeric IL-2 receptor (CD25, CD122, CD132) on HEK-Blue IL-2 reporter cells (UniProt P01589); assay: cell-based or functional assay
[6] = target: T2, IL-2 receptor overexpressed on HEK-Blue …; assay: cell-based or functional assay; remark: listed apart in the source
[7] = target: T1, PD-1 expressed on modified HEK-Blue …; assay: cell-based or functional assay; remark: listed apart in the source
[8] = target: T1, PD-1 expressed on modified HEK-Blue …; assay: cell-based or functional assay; remark: listed apart in the source
[9] = target: T2, IL-2 receptor overexpressed on HEK-Blue …; assay: cell-based or functional assay; remark: listed apart in the source
[10] = target: T1, PD-1 expressed on modified HEK-Blue …; assay: cell-based or functional assay; remark: listed apart in the source
[11] = target: T2, IL-2 receptor overexpressed on HEK-Blue …; assay: cell-based or functional assay; remark: listed apart in the source
[12] = target: T1, PD-1 expressed on modified HEK-Blue …; assay: cell-based or functional assay; remark: listed apart in the source
[13] = target: T2, IL-2 receptor overexpressed on HEK-Blue …; assay: cell-based or functional assay; remark: listed apart in the source
[14] = target: T1, PD-1 expressed on modified HEK-Blue …; assay: cell-based or functional assay; remark: listed apart in the source
[15] = target: T2, IL-2 receptor overexpressed on HEK-Blue …; assay: cell-based or functional assay; remark: listed apart in the source
[16] = target: T1, PD-1 expressed on modified HEK-Blue …; assay: cell-based or functional assay; remark: listed apart in the source
[17] = target: T2, IL-2 receptor overexpressed on HEK-Blue …; assay: cell-based or functional assay; remark: listed apart in the source
[18] = target: T4, CD122/CD132 (heterodimeric IL-2R) on transiently transfected 293F cells (UniProt P14784 27-551; P31785 23-369, limits assumed); assay: flow cytometry on transiently transfected 293F cells
T4 construct: whole, on cells; also called CD122 and CD132
T4 sequence (looked up) 1: T2 sequence (looked up) 2
T4 sequence (looked up) 2: T2 sequence (looked up) 3

[19] = target: T5, heterotrimeric IL-2R (CD25, CD122 and CD132) on transiently transfected 293F cells (UniProt P01589 22-272; P14784 27-551; P31785 23-369, limits assumed); assay: as above
T5 construct: whole, on cells
T5 sequence (looked up) 1: T2 sequence (looked up) 1
T5 sequence (looked up) 2: T2 sequence (looked up) 2
T5 sequence (looked up) 3: T2 sequence (looked up) 3

T1 sequence (Q15116 25-288 limits assumed): as the sequence (Q15116 25-288 limits assumed) above

B1: polypeptide comprising modified IL-2 (T3A, H16A, E61R, P65R, D84S, C125S) fused to the C-terminus of a PD-1-binding VHH (other, not shown: a dimerising Fc or GST; small tags and cut ends)
chain: APASSSTKKTQLQLEALLLDLQMILNGINNYKNPKLTRMLTFKFYMPKKATELKHLQCLERELKRLEEVLNLAQSKNFHLRPRSLISNINVIVLELKGSETTFMCEYADETATIVEFLNRWITFSQSIISTLT
- EC50 (nM), IL-2 reporter cells expressing PD-1 [1]: 0.002 nM
- EC50 (nM), HEK-Blue IL-2 reporter cells lacking PD-1 [2]: 3.2 nM
- PD-1 Targeted EC50 [3]: 0.002 nM
- PD-1 Window [3]: 1570
- Non-targeted EC50 [4]: 3.18 nM
- binding result (Histidine-tagged CD25): no binding (tested: 300 nM)

B2: polypeptide comprising modified IL-2 (T3A, H16A, E61R, P65R, D84Y, C125S) fused to the C-terminus of a CD8a-binding VHH (protein, part only; not given: CD8a-binding VHH and any linker or Fc, part only)
chain, part: B1 chain with S84Y
- CD8a Targeted EC50, IL-2 reporter cells expressing CD8a (secreted alkaline phosphatase) [5]: 0.011 nM
- Non-targeted EC50, HEK-Blue IL-2 reporter cells lacking PD-1, NKp46 and CD8a (secreted alkaline phosphatase) [5]: 4.51 nM

B3: polypeptide comprising modified IL-2 (T3A, H16A, R38A, P65R, D84S, C125S) fused to the C-terminus of a PD-1-binding VHH (other, not shown: a dimerising Fc or GST; small tags and cut ends)
chain: B1 chain with R38A, R61E
- EC50 (nM), IL-2 reporter cells expressing PD-1 [1]: 0.002 nM
- EC50 (nM), HEK-Blue IL-2 reporter cells lacking PD-1 [2]: 2 nM
- PD-1 Targeted EC50 [3]: 0.002 nM
- PD-1 Window [3]: 978
- Non-targeted EC50 [4]: 1.97 nM
- binding result (Histidine-tagged CD25): no binding (tested: 300 nM)

B4: polypeptide comprising modified IL-2 (T3A, H16A, P65R, D84S, I114F, C125S) fused to the C-terminus of a PD-1-binding VHH (other, not shown: a dimerising Fc or GST; small tags and cut ends)
chain: B1 chain with R61E, I114F
- EC50 (nM), IL-2 reporter cells expressing PD-1 [1]: 0.002 nM
- EC50 (nM), HEK-Blue IL-2 reporter cells lacking PD-1 [2]: 1.4 nM
- binding result (Histidine-tagged CD25): no binding (tested: 300 nM)

B5: polypeptide comprising modified IL-2 (T3A, H16A, P65R, D84S, C125S) fused to the C-terminus of a PD-1-binding VHH (other, not shown: a dimerising Fc or GST; small tags and cut ends)
chain: B1 chain with R61E
- EC50 (nM), IL-2 reporter cells expressing PD-1 [1]: 0.001 nM
- EC50 (nM), HEK-Blue IL-2 reporter cells lacking PD-1 [6]: 0.9 nM
- EC50 (nM), IL-2 reporter cells expressing PD-1 [7]: 0.001 nM
- EC50 (nM), HEK-Blue IL-2 + PD-1 [8]: 0.001 nM
- EC50 (nM), HEK-Blue IL-2 [9]: 0.512 nM
- EC50 (nM), HEK-Blue IL-2 reporter cells lacking PD-1 [2]: 0.9 nM
- EC50 (nM), HEK-Blue IL-2 + PD-1 [10]: 0.003 nM
- EC50 (nM), HEK-Blue IL-2 [11]: 0.3 nM
- EC50 (nM), HEK-Blue IL-2 + PD-1 [12]: 0.003 nM
- EC50 (nM), HEK-Blue IL-2 [13]: 0.3 nM
- EC50 (nM), HEK-Blue IL-2 + PD-1 [14]: 0.001 nM
- EC50 (nM), HEK-Blue IL-2 [15]: 0.512 nM
- EC50 (nM), HEK-Blue IL-2 + PD-1 [16]: 0.001 nM
- EC50 (nM), HEK-Blue IL-2 [17]: 0.512 nM

B6: polypeptide comprising modified IL-2 (T3A, H16A, K43E, Y45R, P65R, D84S, C125S) fused to the C-terminus of a PD-1-binding VHH (other, not shown: a dimerising Fc or GST; small tags and cut ends)
chain: B1 chain with K43E, Y45R, R61E
- EC50 (nM), IL-2 reporter cells expressing PD-1 [1]: 0.002 nM
- EC50 (nM), HEK-Blue IL-2 reporter cells lacking PD-1 [2]: 1.5 nM
- binding result (Histidine-tagged CD25): no binding (tested: 300 nM)

B7: polypeptide comprising modified IL-2 (T3A, H16A, F42R, P65R, D84S, C125S) fused to the C-terminus of a PD-1-binding VHH (other, not shown: a dimerising Fc or GST; small tags and cut ends)
chain: B1 chain with F42R, R61E
- EC50 (nM), IL-2 reporter cells expressing PD-1 [1]: 0.003 nM
- EC50 (nM), HEK-Blue IL-2 reporter cells lacking PD-1 [2]: 2.1 nM

B8: polypeptide comprising modified IL-2 (T3A, H16A, K43E, P65R, D84S, C125S) fused to the C-terminus of a PD-1-binding VHH (other, not shown: a dimerising Fc or GST; small tags and cut ends)
chain: B1 chain with K43E, R61E
- EC50 (nM), IL-2 reporter cells expressing PD-1 [1]: 0.001 nM
- EC50 (nM), HEK-Blue IL-2 reporter cells lacking PD-1 [2]: 1.1 nM
- binding result (Histidine-tagged CD25): no binding (tested: 300 nM)

B9: fusion protein comprising triple mutant IL-2 P65R-H16A-D84S (IL-2-RAS) fused to the N-terminus of the knob half of a heterodimeric Fc, paired with a hole Fc (Fc fusion)
chain 1: APTSSSTKKTQLQLEALLLDLQMILNGINNYKNPKLTRMLTFKFYMPKKATELKHLQCLEEELKRLEEVLNLAQSKNFHLRPRSLISNINVIVLELKGSETTFMCEYADETATIVEFLNRWITFCQSIISTLTPGGGGDKTHTCPPCPAPGGPSVFLFPPKPKDTLMISRTPEVTCVVVDVSHEDPEVKFNWYVDGVEVHNAKTKPREEQYNSTYRVVSVLTVLHQDWLNGKEYKCKVSNKALPAPIEKTISKAKGQPREPQVYTLPPCRDELTKNQVSLWCLVKGFYPSDIAVEWESNGQPENNYKTTPPVLDSDGSFFLYSKLTVDKSRWQQGNVFSCSVMHEALHNHYTQKSLSLSPGK
chain 2: KPGGGGDKTHTCPPCPAPGGPSVFLFPPKPKDTLMRSRTPEVTCVVVDVSHEDPEVKFNWYVDGVEVHNAKTKPREEQYNSTYRVVSVLTVLHQDWLNGKEYKCKVSNKALPAPIEKTISKAKGQPREPQVCTLPPSRDELTKNQVSLSCAVKGFYPSDIAVEWESNGQPENNYKTTPPVLDSDGSFFLVSKLTVDKSRWQQGNVFSCSVMHEALHNHYTQKSLSLSPGK
notes: also called IL-2-RAS-xELL knob Fc
- binding result [18]: binds
- binding result [19]: binds

B10: polypeptide comprising modified IL-2 (T3A, H16A, Δ42, P65R, D84S, C125S) fused to the C-terminus of a PD-1-binding VHH (other, not shown: a dimerising Fc or GST; small tags and cut ends)
chain: APASSSTKKTQLQLEALLLDLQMILNGINNYKNPKLTRMLTKFYMPKKATELKHLQCLEEELKRLEEVLNLAQSKNFHLRPRSLISNINVIVLELKGSETTFMCEYADETATIVEFLNRWITFSQSIISTLT
notes: also called IL-2-T3A-H16A-ΔF42-P65R-D84S-C125S
- EC50 (nM), IL-2 reporter cells expressing PD-1 [1]: 0.005 nM
- EC50 (nM), HEK-Blue IL-2 reporter cells lacking PD-1 [2]: 4.2 nM
- binding result (Histidine-tagged CD25): no binding (tested: 300 nM)

Reference: patent US20230235005A1 (INHIBRX, published 2023)
